Data reported in paper PMC5368644.

Columns and labels:
Test in all cases: NMR
Conditions in all cases: 25 °C; Not stated for the titration samples (structure samples contained 45 mM NaCl, 1 mM EDTA, 1 mM EGTA); Phosphate buffer for pH 7.3 to 5.9; acetate buffer for pH 5.5 to 3.5; pH changed by buffer exchange; concentrations not given; Ca2+-free, ligand-free, folded (the protein starts to unfold at pH 3 or below); ~0.5 mM protein
Asp109 = Asp109 (UniProt position 136, FTVQLDDYLNG)
Asp110 = Asp110 (UniProt position 137, TVQLDDYLNGR)
Asp50 = Asp50 (UniProt position 77, RVEKFDLVPVP)
Asp61 = Asp61 (UniProt position 88, TNLYGDFFTGD)
Asp66 = Asp66 (UniProt position 93, DFFTGDAYVIL)
Asp84 = Asp84 (UniProt position 111, GNLQYDLHYWL)
Asp96 = Asp96 (UniProt position 123, NECSQDESGAA)
Glu121 = Glu121 (UniProt position 148, AVQHREVQGFE)
Glu126 = Glu126 (UniProt position 153, EVQGFESATFL)
Glu156 = Glu156 (UniProt position 183, HVVPNEVVVQR)
Glu38 = Glu38 (UniProt position 65, LKAGKEPGLQI)
Glu47 = Glu47 (UniProt position 74, QIWRVEKFDLV)
Glu92 = Glu92 (UniProt position 119, YWLGNECSQDE)
Glu97 = Glu97 (UniProt position 124, ECSQDESGAAA)
His119 = His119 (UniProt position 146, GRAVQHREVQG)
His151 = His151 (UniProt position 178, ASGFKHVVPNE)
His29 = His29 (UniProt position 56, SMVVEHPEFLK)
His86 = His86 (UniProt position 113, LQYDLHYWLGN)

## Gelsolin fragment G1+ (domain 1 plus G1-G2 linker) (Homo sapiens (inferred; not stated explicitly in the article))
Asp109
  pKa: 5.5
Asp110
  pKa: 4.3
Asp50
  pKa: 4.8
Asp61
  pKa: 4.5
Asp66
  pKa: 3.9
Asp84
  pKa: <3.5
Asp96
  pKa: <3.5
Glu121
  pKa: <3.5
Glu126
  pKa: <3.5
Glu156
  pKa: 3.8
Glu38
  pKa: 4.1
Glu47
  pKa: <3.5
Glu92
  pKa: 4.3
Glu97
  pKa: <3.5
His119
  pKa: 4.3
His151
  pKa: 6.2
His29
  pKa: 5.9
His86
  pKa: 4.2
